Measured values as given in patent publication US20140335107A1 (published 2014).
Values belong to the binder of their own block, whether it stands above or below them. Where no end group is shown, it is not given here.

How the values were obtained:
[1] = target: T1, extracellular domain of human CD79b fused to Fc (huCD79becd-Fc) (UniProt P40259 29-159); assay: Biacore; IgG
T1 chain: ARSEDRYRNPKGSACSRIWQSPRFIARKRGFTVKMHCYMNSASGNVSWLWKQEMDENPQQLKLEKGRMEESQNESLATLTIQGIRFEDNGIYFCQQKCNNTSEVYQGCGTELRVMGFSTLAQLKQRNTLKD

[2] = target: T2, extracellular domain of human CD79b (huCD79becd) (UniProt P40259 29-159); assay: Biacore; IgG
T2 chain: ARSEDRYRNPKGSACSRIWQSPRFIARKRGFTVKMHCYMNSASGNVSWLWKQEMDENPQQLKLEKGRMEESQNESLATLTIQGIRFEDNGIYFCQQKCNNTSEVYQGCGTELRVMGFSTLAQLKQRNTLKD

[3] = target: T1, extracellular domain of human CD79b …; assay: Biacore; Fab
[4] = target: T2, extracellular domain of human CD79b …; assay: Biacore; Fab
[5] = target: T3, 16 amino acid peptide containing the epitope for MA79b (ARSEDRYRNPKGSACK) (also: biotinylated (site not given here)); assay: Biacore; IgG
T3 peptide: ARSEDRYRNPKGSACK

B3: huMA79b graft variant with HVR-L2 of SEQ ID NO: 22 (huMA79b L2-2), Fab (Fab, V domains shown)
VH: EVQLVESGGGLVQPGGSLRLSCAASGYTFSSYWIEWVRQAPGKGLEWVGEILPGGGDTNYNEIFKGRFTISADTSKNTAYLQMNSLRAEDTAVYYCTRRVPVYFDYWGQGTLVTVSS
VL: DIQMTQSPSSLSASVGDRVTITCKASQSVDYDGDSFLNWYQQKPGKAPKLLIYAARKLGRGVPSRFSGSGSGTDFTLTISSLQPEDFATYYCQQSNEDPLTFGQGTKVEIKR
Kd [3]: 44 nM
Kd [4]: 39 nM

B4: hu MA79b H1-6 (IgG) (antibody, V domains shown)
VH: EVQLVESGGGLVQPGGSLRLSCAASGYPFTRYWINWVRQAPGKGLEWVGEILPGGGDTNYNEIFKGRFTISADTSKNTAYLQMNSLRAEDTAVYYCTRRVPVYFDYWGQGTLVTVSS
VL: DIQMTQSPSSLSASVGDRVTITCKASQSVDYDGDSFLNWYQQKPGKAPKLLIYAASNLESGVPSRFSGSGSGTDFTLTISSLQPEDFATYYCQQSNEDPLTFGQGTKVEIKR
Kd [2]: 42 nM

B7: MA79b-grafted humanized antibody variant L2/H3 (huMA79b L2/H3), IgG (antibody, V domains shown)
VH: EVQLVESGGGLVQPGGSLRLSCAASGYTFSSYWIEWVRQAPGKGLEWVGEILPGGGDTNYNEIFKGRFTISADTSKNTAYLQMNSLRAEDTAVYYCTRRVPIRLDYWGQGTLVTVSS
VL: DIQMTQSPSSLSASVGDRVTITCKASQSVDYDGDSFLNWYQQKPGKAPKLLIYAARKLGRGVPSRFSGSGSGTDFTLTISSLQPEDFATYYCQQSNEDPLTFGQGTKVEIKR
Kd [1]: 2 nM
Kd [5]: 1 nM
Kd [2]: 3 nM

Further lines, results first:

Kd [1]: 2 nM
Kd [2]: 4.7 nM
B1: murine anti-CD79b monoclonal antibody MA79b (antibody, V domains shown)
VH: EVQLQQSGAELMKPGASVKISCKATGYTFSSYWIEWVKQRPGHGLEWIGEILPGGGDTNYNEIFKGKATFTADTSSNTAYMQLSSLTSEDSAVYYCTRRVPVYFDYWGQGTSVTVSS
VL: DIVLTQSPASLAVSLGQRATISCKASQSVDYDGDSFLNWYQQKPGQPPKLFIYAASNLESGIPARFSGSGSGTDFTLNIHPVEEEDAATYYCQQSNEDPLTFGAGTELELKR

Kd [3]: 200 nM
B2: MA79b (Fab) (antibody, V domains shown)
VH: EVQLQQSGAELMKPGASVKISCKATGYTFSSYWIEWVKQRPGHGLEWIGEILPGGGDTNYNEIFKGKATFTADTSSNTAYMQLSSLTSEDSAVYYCTRRVPVYFDYWGQGTSVTVSS
VL: DIVLTQSPASLAVSLGQRATISCKASQSVDYDGDSFLNWYQKPGQPPKLFIYAASNLESGIPARFSGSGSGTDFTLNIHPVEEEDAATYYCQQSNEDPLTFGAGTELELKR

Kd [2]: 29 nM
B5: hu MA79b H3-10 (IgG) (antibody, V domains shown)
VH: EVQLVESGGGLVQPGGSLRLSCAASGYTFSSYWIEWVRQAPGKGLEWVGEILPGGGDTNYNEIFKGRFTISADTSKNTAYLQMNSLRAEDTAVYYCTRRVPIRLDYWGQGTLVTVSS
VL: DIQMTQSPSSLSASVGDRVTITCKASQSVDYDGDSFLNWYQQKPGKAPKLLIYAASNLESGVPSRFSGSGSGTDFTLTISSLQPEDFATYYCQQSNEDPLTFGQGTKVEIKR

Kd [2]: 43 nM
B6: MA79b-grafted humanized antibody variant L2-2 (huMA79b L2-2), IgG (antibody, V domains shown)
VH: EVQLVESGGGLVQPGGSLRLSCAASGYTFSSYWIEWVRQAPGKGLEWVGEILPGGGDTNYNEIFKGRFTISADTSKNTAYLQMNSLRAEDTAVYYCTRRVPVYFDYWGQGTLVTVSS
VL: DIQMTQSPSSLSASVGDRVTITCKASQSVDYDGDSFLNWYQQKPGKAPKLLIYAARKLGRGVPSRFSGSGSGTDFTLTISSLQPEDFATYYCQQSNEDPLTFGQGTKVEIKR

Kd [2]: 261 nM
B8: MA79b-grafted humanized antibody (huMA79b graft), IgG (antibody, V domains shown)
VH: EVQLVESGGGLVQPGGSLRLSCAASGYTFSSYWIEWVRQAPGKGLEWVGEILPGGGDTNYNEIFKGRFTISADTSKNTAYLQMNSLRAEDTAVYYCTRRVPVYFDYWGQGTLVTVSS
VL: DIQMTQSPSSLSASVGDRVTITCKASQSVDYDGDSFLNWYQQKPGKAPKLLIYAASNLESGVPSRFSGSGSGTDFTLTISSLQPEDFATYYCQQSNEDPLTFGQGTKVEIKR
